The source of these data is PMC9786614, “Nerve Targeting via Myelin Protein Zero and the Impact of Dimerization on Binding Affinity” (Molecules, 2022).

For orientation: logP means a log measure of how a compound divides between an organic and an aqueous phase. Lower therefore signals lower lipophilicity. As usually defined, the share remaining is the share of the starting amount still present when the sample was taken. Higher therefore signals greater stability.

Starred links: 1 amine or outer side, 2 acyl side, 3 side chain; linkers in the order of their positions; H or OH if unused. Positions of bridges follow the written chain, without caps; N, C: chain ends. Chains are numbered I, II in the order given. X1 = CC1(C)C(/C=C/C=C/C=C2/N(CCCCCC(=O)NCCN3C(=O)CC([*:1])C3=O)c3ccc(S(=O)(=O)O)cc3C2(C)C)=[N+](CCCCCC(=O)NCCN2C(=O)CC([*:2])C2=O)c2ccc(S(=O)(=O)[O-])cc21

A short description of data set [1]: Lipophilicity logP(o/w). Type of data set: physicochemical. To be noted: octanol/water; protocol modified from Hensbergen et al. [34]; mean ± spread. On the procedure: The molar extinction coefficient (ε), quantum yield (QY), brightness, lipophilicity, serum protein binding, photo- and chemical stability, and stacking behavior were determined according to a slight modification of the protocol put forward by Hensbergen et al.. Sulfonate-(SO3)Cy5(SO3)-COOH [27] was measured and used as a control for QY.

Data set [2] is described as follows: Stability towards glutathione. The class given is physicochemical. On the procedure:
For the stability towards glutathione, which is used as a measure of stability towards thiols and amines in vivo, 125 µL of a 2 mM solution of the compound in (0.1 M HEPES pH 7.4, pre-sparged with N2) was added to 125 µL of a 4 mM solution of reduced glutathione in 0.1M HEPES pH 7.4 (pre-sparged with N2). The solutions were mixed and then placed in a sample manager. A sample was analyzed at 37 degrees over 6 h in total to determine the amount of compound relative to t = 0.

For data set [3], the system named is RT4-D12 Schwannoma cells. Briefly: Fluorescence confocal microscopy of P0 staining. The class given is cell-based. To be noted: 1 h at 4 °C. How it is done:
RT4-D12 Schwannoma cells were trypsinized and seeded onto 35 mm culture dishes that contained a glass insert (MatTek co, Emu Plains, New South Wales, Australia) two days prior to the imaging experiment. Then, 0.5–1000 nM Cy5-P0_101–125 or Cy5-(P0_101–125)2 was added one hour prior to imaging (incubation at 4 °C; n = 3 per tracer). Peptide solutions were sonicated for 20 s prior to addition to prevent aggregation of the peptide in solution. Lysotracker (lysotracker green; 2 µL/mL DND-26, Thermo Fisher, Waltham, MA, USA) and Hoechst (33,342, 1 mg/mL, 1:500, Thermo Fisher) were added to the to provide staining of lysosomes and the nucleus, respectively.
Images were acquired following Cy5 excitation at 633 nm. Emission was collected between 650–700 nm. For visualization of the lysosomes in the cells, a 488 nm laser was used for excitation, while emission was collected between 500–550 nm. Hoechst was excited at 405 nm, and emission was collected between 410–460 nm. Fluorescence confocal images were acquired using a Leica SP8 WL at sequential settings and 63× magnification. Image analysis was performed using Leica Confocal Software (Leica Microsystems). Semi-quantitative analysis of the Cy5 signal intensity was performed using the quantification tool in Fiji software according to previously described methods.

For “I: Ac-KNPPDIVGKTSQVTLYVFEKVPTRYC-NH2 / II: Ac-KNPPDIVGKTSQVTLYVFEKVPTRYC-NH2 (linker I:26-II:26 via X1) [Cy5-(P0_101–125)2]”, the loss of fluorescence intensity with temperature increase stood at 65%. For the same substance, the lipophilicity (logP) in data set [1] is -0.57 ± 0.01. The same substance showed an amount remaining at 6 h, 1 mM in data set [2] (HEPES buffer with reduced glutathione, 2 mM compound mixed 1:1 with 4 mM reduced glutathione, 0.1 M HEPES pH 7.4 (N2 sparged), 37 degrees, amount relative to t = 0) of 96%. Besides, the “degradation in glutathione stability test” value in data set [2] (reduced glutathione, 0.1 M HEPES pH 7.4, 37 degrees, 6 h) is recorded as 4%. The “P0-related staining at 100 nM tracer” value in data set [3] is recorded as “cells could be clearly discriminated”.
